# B1: ACS7 (Haloferax volcanii DS2) (protein)
# chain: MAQGDAELEARLAEQDEFEPTEEFVAQANVSDAGIYDEFEENWPDCWERAADLLDWDADYDEVLDDSNPPFYEWFTGGELNACYNCVDRHVENGDKNRVAIKWEGEHGETRTYTYQDLYREVNEFAAALRDLGVEEDDVVTLYMPMVPELPIAMLACARIGAPHNVVFAGFSAEALATRMNAADSRFLVTCDGYYRRGDPLDHLDKTNEGLDSVDHGVDATVVVDRLGDDGFDHDLKGNQHDWDDLLEAQSGERVAPVERDAEDMLFLMYTSGTTGQPKGVKHTTGGYLSYATWTSHAVLDIETEDTYWCSADIGWITGHSYIVYGPLALGSTTVMYEGTPDFPNRDRMWELVEKYAVDIFYTAPTAIRAFMKWGSKYPESRDLSSLRLLGTVGEPINPRAWKWYYEHIGNENCPVVDTWWQTETGGMMITTLPGVKNMKPGSAGPPLPGIDAQIVDTDGDEVEPGRAGYLTVNKPWPGMLRTLYDNDERYISEYWAEYSDTDSDDPDDWVYFPEDGAKVDEDGYITVLGRVDDVINVSGHRLGTMEIESAIVGVEGVAEAAVVGGNHEVKGEAVYAYVITEDGYEEGEDLRARIVEGVEDAIGPIARPEQVVFTPELPKTRSGKIMRRLLEDVANGAELGNTSTLRNPEIVGEIEAKVRAQSD
# notes: full length, Ni-NTA purified (pTA963), homologous expression in H. volcanii H1209
# B2: PPS (Haloferax volcanii DS2) (protein)
# chain: MAVVWLDDVRADDLDLVGGKGASLGELTGAGLPVPPGFVVTASTYRAFIEDAGIDDELFAAVEVDHEDSEALQAAHETAHDLIMETPMPDDVREEILDAYRSVGEGDAFVAVRSSATAEDLPDASFAGQQETFLNVTEEDLLDRVKECWASLFSERAIYYRNRKGFPHDKVDIAVVVQQMVDAEKSGVMFTRHPSTGKKEIIIEAAWGLGEAVVSGTVSPDNYVVSRETGEVETATIADKKTMCVRDEESGETVMRDVPNGRRHERVLTDDEVSRLLELGELVEDHYEKPQDVEWAVYDGEVYMLQSRPITTIAEGDDGEETESEGDSSGSSRATATGDDVLIRGLGASPGIASGRARIVTKLDHLDQVAEGDIIVTEMTMPDMVPAMKRAAGIVTDEGGMTSHAAIVSRELGVPAVVGTGDGTKTLEDGEVVTIDGDKGTVREGEEPEEKQRQPVEEARPKTPVKPMTATEVKVNVSIPEAAERAAATGADGVGLLRIEHMVLTLGKTPGRFIEQNGERAYVDEIVSGVREAAEEFYPRPVRVRTLDAPTDEFRQLEGGENEPREHNPMLGYRGIRRGLDNPSVFRLELQAFRRLFDMGYDNLEVMFPLVNDAEDVLRAKEHMREAGIDPEKREWGVMIETPAAALCIEELADAGIDFASFGTNDLTQYTLAVDRNNEHVADIYDELHPAVLKLIGDTIETCREVGVKTSICGQAGSKPKMVQFLVDKGVSSISANIDAVRDVQHEVKRVEQRLLLDSVR
# notes: full length, Ni-NTA purified, homologous expression in H. volcanii
# B3: Mae2 (Haloferax volcanii DS2) (protein)
# chain: MTLGDDARDYHRRPPAGKVEIATTKPTNTQRDLSLAYSPGVAAPCRDIAEDENAAYEYTAKGNLVGVVSNGSAVLGLGDIGAQASKPVMEGKGVLFKRFADIDVFDVEFDHDDPQAFVESVAAMEPTFGGINLEDIRAPECFEIEESLRERMDIPVFHDDQHGTAIISGAALLNAADIADKELSSLNVTFSGAGAAATATARFYVSLGIPHENITLCDIDGVLSESRAEAGELDEYAEPFARGVDDGDLEDAMEGADVLVGLSVGGIVSQETVRSMADDPIIFAMANPEPEIAYEDAKEARDDTVIMATGRSDYPNQVNNVLGFPFIFRGALDVRATEINEEMKRAAAEALANLARQDVPDAVVKAYGDGPLQFGPDYLIPKPLDQRVLYEVTPAVAEAAMKSGAARRERDLDDYREELEARLGKSREMMRVVLNKAASNPKRVVLAEGEDEKMIRAASQLVEEGIAEPILVGRTKEILRTAEDLGLDFDPTIADPESGEWNHYVDHLYERRQRKGLTRTEAAELVRGDSNYFASVMVEVGDADAMLTGLTHHYPSALRPPLQIIGTADDADYAAGVYMLTFRNRVIFCADATVNLDPDENVLAEVTKHTAELARRFNVEPRAALLSYSDFGSVTNEGTRKPRNAVEQLHADPDVDFPVDGEMQADTALVEEMLTDTYDFAELDDPANVLVFPNLEAGNIGYKLLQRLGGAEAIGPMLVGMDKPVHVLQRGDEVKDIVNLAGVAVVDAQSE
# notes: full length with C-terminal PTA domain, Ni-NTA purified, homologous expression in H. volcanii; 530 kDa, subunit 81 kDa
# Tests used:
# purified protein [1] = substrate: CC(C)(COP(=O)(O)OP(=O)(O)OC[C@H]1O[C@@H](n2cnc3c(N)ncnc32)[C@H](O)[C@@H]1OP(=O)(O)O)[C@@H](O)C(=O)NCCC(=O)NCCS; experiment: purified protein; assay type: biochemical, Haloferax volcanii; conditions: acetate activation, ATP, CoA, MgCl2, 1 M KCl, pH 7.0, 42°C
# purified protein [2] = substrate: Nc1ncnc2c1ncn2[C@@H]1O[C@H](COP(=O)(O)OP(=O)(O)OP(=O)(O)O)[C@@H](O)[C@H]1O; experiment: purified protein; assay type: biochemical, Haloferax volcanii; conditions: acetate activation, ATP, CoA, MgCl2, 1 M KCl, pH 7.0, 42°C
# purified protein [3] = substrate: CC(=O)SCCNC(=O)CCNC(=O)[C@H](O)C(C)(C)COP(=O)(O)OP(=O)(O)OC[C@H]1O[C@@H](n2cnc3c(N)ncnc32)[C@H](O)[C@@H]1OP(=O)(O)O; experiment: purified protein; assay type: biochemical, Haloferax volcanii; conditions: acetate formation (reverse), AMP, PPi, MgCl2, 1 M KCl, pH 7.0, 42°C
# purified protein [4] = substrate: Nc1ncnc2c1ncn2[C@@H]1O[C@H](COP(=O)(O)O)[C@@H](O)[C@H]1O; experiment: purified protein; assay type: biochemical, Haloferax volcanii; conditions: acetate formation (reverse), acetyl-CoA, PPi, MgCl2, 1 M KCl, pH 7.0, 42°C
# purified protein [5] = substrate: CC(=O)O; experiment: purified protein; conditions: acetate activation, ATP, CoA, MgCl2, 1 M KCl, pH 7.0, 42°C, pH 7.0
# [6] = substrate: Nc1ncnc2c1ncn2[C@@H]1O[C@H](COP(=O)(O)OP(=O)(O)OP(=O)(O)O)[C@@H](O)[C@H]1O; experiment: discontinuous PEP formation assay; assay type: biochemical, Haloferax volcanii; conditions: pyruvate, MgCl2, DTE, 2 M KCl, pH 8.0, 42°C
# [7] = substrate: CC(=O)C(=O)O; experiment: discontinuous PEP formation assay; assay type: biochemical, Haloferax volcanii; conditions: ATP, MgCl2, DTE, 2 M KCl, pH 8.0, 42°C
# purified protein [8] = substrate: NC(=O)c1ccc[n+]([C@@H]2O[C@H](COP(=O)(O)OP(=O)(O)OC[C@H]3O[C@@H](n4cnc5c(N)ncnc54)[C@H](O)[C@@H]3O)[C@@H](O)[C@H]2O)c1; experiment: purified protein; assay type: biochemical, Haloferax volcanii; conditions: 10 mM malate, MnCl2, […] KCl, pH 7.0, 42°C, varied: cofactor
# purified protein [9] = substrate: NC(=O)c1ccc[n+]([C@@H]2O[C@H](COP(=O)(O)OP(=O)(O)OC[C@H]3O[C@@H](n4cnc5c(N)ncnc54)[C@H](OP(=O)(O)O)[C@@H]3O)[C@@H](O)[C@H]2O)c1; experiment: purified protein; assay type: biochemical, Haloferax volcanii; conditions: 10 mM malate, MnCl2, […] KCl, pH 7.0, 42°C, varied: cofactor
protein,measurement,setting,value
B1,Km,purified protein [1],0.23 mM
same,Km,purified protein [2],0.59 mM
same,Km,purified protein [3],0.15 mM
same,Vmax,purified protein [3],6.2 µmol/min/mg
same,Km,purified protein [4],0.09 mM
same,Km,purified protein [5],0.84 mM
same,Vmax,purified protein [5],26.1 µmol/min/mg
B2,Km,[6],0.36 mM
same,Km,[7],0.27 mM
B3,Km,purified protein [8],0.15 mM
same,Km,purified protein [9],0.1 mM

# Source: article PMC7746861, “Acetate Metabolism in Archaea: Characterization of an Acetate Transporter and of Enzymes Involved in Acetate Activation and Gluconeogenesis in Haloferax volcanii” (Frontiers in Microbiology, 2020)
